Data published in patent publication US20110318339A1 (FABRUS, published 2011).

What was measured:
[1] = target: T1, recombinant human DLL4 (Cat# 1506-D4/CF, R&D Systems) (human, UniProt Q9NR61 27-529); experiment: ELISA, DLL4 coated, Fab 100 nM
T1 construct: Bought protein; also called hDLL4; rHuman DLL4
Protocol: (§1) In this example, an ELISA binding assay was used to assess the dose-dependent binding of Fab antibodies to recombinant human DLL4 and recombinant mouse DLL4.
(§2) The plate was blocked by adding 1% BSA in Tris-buffered Saline Tween (TBST) and incubating for 1 hour at room temperature followed by washing 2 times with 150 μl TBST. A Fab antibody was serially diluted in 1% BSA in PBS. A 50 μl aliquot of each serial dilution was added, in triplicate, to each well and the plate was incubated for 1 hour at room temperature followed by washing 2 times with TBST. 50 μl of either goat anti-human kappa HRP conjugated secondary antibody (Cat # A7164-1 mL, Sigma-Aldrich) or goat anti-human lambda HRP conjugated secondary antibody (Cat # L1645-1 ml, Sigma-Aldrich), diluted 1:1000 in 1% BSA in PBS, was added to each well and the plate was incubated for 30 minutes at room temperature followed by washing 3 times with 200 μl TBST. Finally, 50 μl TMB one-component reagent (Cat # TMBW-1000-01, BioFax) was added and allowed to develop for 2 minutes at room temperature. The reaction was immediately halted by the addition of 50 μl 0.5M H₂SO₄ and the absorbance at 450 nm was measured using an ELISA plate reader.

[2] = target: T1, recombinant human DLL4 (Cat# …); experiment: ELISA, DLL4 coated, Fab 12.5 nM
Protocol: as §1, §2

[3] = target: T1, recombinant human DLL4 (Cat# …); experiment: ELISA, DLL4 coated, Fab 50 nM
Protocol: as §1, §2

[4] = target: T1, recombinant human DLL4 (Cat# …); experiment: ELISA, DLL4 coated, Fab 25 nM
Protocol: as §2

[5] = target: T1, recombinant human DLL4 (Cat# …); experiment: SPR (ProteOn), hDLL4 amine-coupled on chip
Protocol: In this example, the binding affinities of selected anti-DLL4 Fabs to recombinant human DLL4 (hDLL4, Cat# 1506-D4/CF, R&D Systems) were analyzed using Surface Plasmon Resonance (SPR) (Biosensor Tools, Salt Lake City, Utah). The Fabs analyzed include germline-derived antibodies and germline-modified DLL4 antibodies. Recombinant hDLL4 was immobilized on a SPR chip using amine coupling at three different surface densities. The Fabs were serially diluted 3-fold, with an initial concentration of 1 μM. Binding studies were run on a ProteOn system using a GLM sensor chip in 10 mM HEPES, pH 7.4, 150 mM NaCl, 0.01% Tween-20, and 0.1 mg/ml BSA at 25° C. The response data from each surface was globally fit to determine the binding constants.

Row | Binder | ELISA absorbance at 450 nm [1] | ELISA absorbance at 450 nm [2] | ELISA absorbance at 450 nm [3] | ELISA absorbance at 450 nm [4] | Kd [5] | koff [5] | kon [5]
1 | Fab VH5-51_IGHD5-18*01>3_IGHJ4*01 G100K/G104T G24T/S28R/G35V & V3-4_IGLJ1*01 V91L/S96P S52P (Fab, V domains shown, Fab made in E. coli: VH on CH1 with His6 and Flag tags (Plasmid A), VL on lambda CL (Plasmid E); also called H: KT TRV & L: LP S52P) VH: EVQLVQSGAEVKKPGESLKISCKTSGYRFTSYWIVWVRQMPGKGLEWMGIIYPGDSDTRYSPSFQGQVTISADKSISTAYLQWSSLKASDTAMYYCARRKYSYTYDYFDYWGQGTLVTVSS VL: QTVVTQEPSFSVSPGGTVTLTCGLSSGSVSTSYYPSWYQQTPGQAPRTLIYPTNTRSSGVPDRFSGSILGNKAALTITGAQADDESDYYCLLYMGPGISYVFGTGTKVTVL | 1 A450 | 0.43 A450 | 0.79 A450 | 0.59 A450 | – | – | –
2 | Fab VH5-51_IGHD5-18*01>3_IGHJ4*01 G100K/G104T G24T/S28R/G35V & V3-4_IGLJ1*01 V91L/S96P S52K (Fab, V domains shown, Fab made in E. coli: VH on CH1 with His6 and Flag tags (Plasmid A), VL on lambda CL (Plasmid E); also called H: KT TRV & L: LP S52K) VH: EVQLVQSGAEVKKPGESLKISCKTSGYRFTSYWIVWVRQMPGKGLEWMGIIYPGDSDTRYSPSFQGQVTISADKSISTAYLQWSSLKASDTAMYYCARRKYSYTYDYFDYWGQGTLVTVSS VL: QTVVTQEPSFSVSPGGTVTLTCGLSSGSVSTSYYPSWYQQTPGQAPRTLIYKTNTRSSGVPDRFSGSILGNKAALTITGAQADDESDYYCLLYMGPGISYVFGTGTKVTVL | 1.23 A450 | 0.56 A450 | 1.03 A450 | 0.79 A450 | – | – | –
3 | Fab VH5-51_IGHD5-18*01>3_IGHJ4*01 G100K/G104T G24T/S28R/G35V & V3-4_IGLJ1*01 V91L/S96P S52V (Fab, V domains shown, Fab made in E. coli: VH on CH1 with His6 and Flag tags (Plasmid A), VL on lambda CL (Plasmid E); also called H: KT TRV & L: LP S52V) VH: EVQLVQSGAEVKKPGESLKISCKTSGYRFTSYWIVWVRQMPGKGLEWMGIIYPGDSDTRYSPSFQGQVTISADKSISTAYLQWSSLKASDTAMYYCARRKYSYTYDYFDYWGQGTLVTVSS VL: QTVVTQEPSFSVSPGGTVTLTCGLSSGSVSTSYYPSWYQQTPGQAPRTLIYVTNTRSSGVPDRFSGSILGNKAALTITGAQADDESDYYCLLYMGPGISYVFGTGTKVTVL | 0.95 A450 | 0.43 A450 | 0.74 A450 | 0.6 A450 | – | – | –
4 | Fab VH1-46_IGHD6-6*01_IGHJ1*01 S102A/S103P/S104F/H111F G56H & L6_IGKJ1*01 (Fab, V domains shown, Fab made in E. coli: VH on CH1 with His6 and Flag tags (Plasmid A), VL on kappa CL (Plasmid C); also called H: APFF G56H & L: wt) VH: QVQLVQSGAEVKKPGASVKVSCKASGYTFTSYYMHWVRQAPGQGLEWMGIINPSGHSTSYAQKFQGRVTMTRDTSTSTVYMELSSLRSEDTAVYYCAREEYAPFSAEYFQFWGQGTLVTVSS VL: not shown | – | – | – | – | 32.7 nM | 0.0101 s⁻¹ | 351000 M⁻¹ s⁻¹

The remaining lines, values ahead:

Row | ELISA absorbance at 450 nm [1] | ELISA absorbance at 450 nm [2] | ELISA absorbance at 450 nm [3] | ELISA absorbance at 450 nm [4] | Kd [5] | koff [5] | kon [5] | Binder
5 | 1.04 A450 | 0.4 A450 | 0.82 A450 | 0.6 A450 | – | – | – | Fab VH5-51_IGHD5-18*01>3_IGHJ4*01 G100K/G104T G24T/S28R/G35V & V3-4_IGLJ1*01 V91L/S96P S52I (Fab, V domains shown, Fab made in E. coli: VH on CH1 with His6 and Flag tags (Plasmid A), VL on lambda CL (Plasmid E); also called H: KT TRV & L: LP S52I) VH: EVQLVQSGAEVKKPGESLKISCKTSGYRFTSYWIVWVRQMPGKGLEWMGIIYPGDSDTRYSPSFQGQVTISADKSISTAYLQWSSLKASDTAMYYCARRKYSYTYDYFDYWGQGTLVTVSS VL: QTVVTQEPSFSVSPGGTVTLTCGLSSGSVSTSYYPSWYQQTPGQAPRTLIYITNTRSSGVPDRFSGSILGNKAALTITGAQADDESDYYCLLYMGPGISYVFGTGTKVTVL
6 | 0.99 A450 | 0.42 A450 | 0.69 A450 | 0.49 A450 | – | – | – | Fab VH5-51_IGHD5-18*01>3_IGHJ4*01 G100K/G104T G24T/S28R/G35V & V3-4_IGLJ1*01 V91L/S96P S52F (Fab, V domains shown, Fab made in E. coli: VH on CH1 with His6 and Flag tags (Plasmid A), VL on lambda CL (Plasmid E); also called H: KT TRV & L: LP S52F) VH: EVQLVQSGAEVKKPGESLKISCKTSGYRFTSYWIVWVRQMPGKGLEWMGIIYPGDSDTRYSPSFQGQVTISADKSISTAYLQWSSLKASDTAMYYCARRKYSYTYDYFDYWGQGTLVTVSS VL: QTVVTQEPSFSVSPGGTVTLTCGLSSGSVSTSYYPSWYQQTPGQAPRTLIYFTNTRSSGVPDRFSGSILGNKAALTITGAQADDESDYYCLLYMGPGISYVFGTGTKVTVL
7 | 0.96 A450 | 0.47 A450 | 0.81 A450 | 0.67 A450 | – | – | – | Fab VH5-51_IGHD5-18*01>3_IGHJ4*01 G100K/G104T G24T/S28R/G35V & V3-4_IGLJ1*01 V91L/S96P S52Q (Fab, V domains shown, Fab made in E. coli: VH on CH1 with His6 and Flag tags (Plasmid A), VL on lambda CL (Plasmid E); also called H: KT TRV & L: LP S52Q) VH: EVQLVQSGAEVKKPGESLKISCKTSGYRFTSYWIVWVRQMPGKGLEWMGIIYPGDSDTRYSPSFQGQVTISADKSISTAYLQWSSLKASDTAMYYCARRKYSYTYDYFDYWGQGTLVTVSS VL: QTVVTQEPSFSVSPGGTVTLTCGLSSGSVSTSYYPSWYQQTPGQAPRTLIYQTNTRSSGVPDRFSGSILGNKAALTITGAQADDESDYYCLLYMGPGISYVFGTGTKVTVL
